Experiment: soluble on expression in E. coli; label from the status in PepcDB or PDB records

| Sequence | soluble on expression in E. coli |
| --- | --- |
| MGSDKIHHHHHHMKTNNSPISLLQTQNNTYNVLNNIKVHVEVRDNPYNLELDNLFQMAARINKKRSFLFVSTILGKHLPIKPAVSLASGFALAARYMEILHNTFHPFQKEILNLISLEVDEIPEEIFHYQYPLPEEVLFIGFAETATALGHSMFQCFQNAKYVHTTRESIPNLESVITFEEEHSHATSHRCYVDKSFFQNNNPIILVDDEMTTGKTALNIIRSIQQQFPREEYTIASLLDWRSNTNRRQFKQLEEELQIKIHVISLLEGRIHTTGQPLNITKTDTHIEETKPYFKKHTIICPALSYTSNYIKYTGRFGISSYEQKHIHSFAQEAGKMLQRKRIGKRTLCLGTGEFMYIPMKIAAEMGENILYQSTTRSPIHPVSNDVNYAIHNHFSYPNPEDSTITNYFYNISPHEYDEVFVFMERDVGEEALSPLLQHLQTVIPCIHIVSFSNSIEKEG | not soluble |
| GYSNAGLVNNLAGKLIANYWLDKVYSKEEGYAHRNGDVHIHDLDCLTGYCAGWSLRSLLNEGFNGVRGRVESRAPKHLREALGQMANFLGILQSEWAGAQAFSSFDTYLAPYVFRDQLEFKEIKKAIKSFVYNLNVPARWGQSPFTNVTIDWTVPADLKDQIPTRNDRHLFEDIQEDALLVQEAQKRGASSLLSMTYKYFQAEMNLINRAFYEVMTEGDKTGQPFTFPIPTVNITEDFDWHGENTDLLFENTAKIGSSYFQNFIGSQYIRNEKGELVENPEAYKPNAVRSMCCRLQLDLRELLKRGGGLFGSAEMTGSIGVVTLNMARLGYRFRGDREGLMAELTKLMDLSKSTLEKKRQAVTELFHRGLYPYTKRYLPGFNNHFSTIGVNGINEMIRNFTNDQDNISSPSGMAFATEILEFMRERIRSYQEETGNLYNLEATPAEGTTYRFAKEDKKRYPQIIQAGMEENVYYTNSSQLPANFTDDPFEALTLQDELQCKYTGGTVLHLYMREKISSAEACRKLVKTVITSYKLPYITITPVFSVCPKHGYLRGEHEYCPLCDEEALLEIEQSQCC | not soluble |
| MGSDKIHHHHHHMENKYLVSIIVPVHNTADYLHKCIESLRSQTLQQIEIILVDNLSVDGSSEICDEYAKIDKRIKVLHLSIAGLSIARNAGMRIASAPYIGFVDSDDYVEPAMFEKMLDAMVQSDAEIAYCNFLLEYEFKPNESPYRNSGDIVIRDPKNVLQDMMMEKVSCSACTKLYKSGFLTSLQFPEGKNYEDRLVMYEWVALCKKVVWVDSPFYHYVERQTSICHTMSPMNLYHYFLAEYARMRFMEKYSLFEEEDLFKIRTRLIGTCLTIFKEILLKVNLREFKEPVKDMRQKMKEIAALPEDTYELKYRRRVRKIAYHWHLYYLTHFLFKKGGDS | not soluble |
| GPGSMKAQPKQIGCYLVTEASREESFVVLEGHEVDNPNRHVRAKALLEDRAAPENISVRIGIEENLLGRSVAYPRARCRALEQEEGKSVRASNDSLAELWRARPL | soluble |
| MGDRFDSARHRVEAAAIKAFAGEFDPQPFHLDEEAARHSLFGGLAASGWHTAAITMRLLVTSGLPLAQGIIGAGTELSWPNPTRPGDELHVETTVLAITPSKSRPDRAIVTCQSDTLNQRGEVVQRSTAKVVVFRRPLEHHHHHH | not soluble |
| MTTEYLDEERDLPLPRQKKGIDHTQTEPIRGFFGVKDMFAFENVGFTRSSEGKRYLVCGECEQGPVGFVDPVTEMNYVSPERLDVLPDVAAAAVEAGK | not soluble |
| MENRGILFDKDGTCIRFDTLWQAGLQACFETLSMLAPHHSAEIKKILAIQEQRFLQKHLLDEVLYQELYQELAQFEELVEQGISSRWLEQFFYDYLRKNLKKIEPIGDLKQLFLELKRKNYKIGLATSDTLPATMLIMEYLGLTEMFDFIATGDRYLPKPDADMLQAFCQSCQLKATEVIMVGDSLVDVFMGTCHGKAGIGVLTGNCQSTDFEKFEVAYFRDIHEIPYQELWENTKKKKIYYF | not soluble |
| GPGSMRARSLLRQQASAATLQPLRSVVAIGLRQEFDPHWPLPLPPPLPMNKQKHTLVLDIDETLIHTYAMGLHDDSKDHTRDPALQGVSLIDYNVLLRPHLKEFLEEVNQLFEVVFWTAGTASYCCAVLDALEQQVMQLPRSFYSYVELAKESRKMKSSTSHTNFYALSRTQTLEQQGYMKYLPMLGRKMSSVVMLDDNVRSFPLTPRNGIRIDAFDPDDHVLQRYIFALRRVQKEKPHEMEAALVQCLQQGQQE | not soluble |
| MTIKTLQYDDFMLYRERIRDLLVQIYDINFDVSHDYSINESNKKINLLDEYIKTNQAVLIGAVDGEKLVGFIWIYKHEYFGETRMHINQIIVDKEYKRKGIGKRLLEEAEKKAKELGIKVIDLFVSEKNAEAVNFYEKTGFVTERRYLKKILLEHHHHHH | not soluble |
| MSLRLRKDVLNYESRQKSDLLIPNSNSISIYNQIADKYSRKITREEIFSGIYFLRYFLLRNAKGDVLEVGSGPGTNFPFYKWKKINTLTLVEPAEKMREIADARAKKKVPPNVLYRQFADLRQLPPNQSYDTIIQTFCICSQEKAVEQLNNYRSLLRSDGRILLIEHGKGKYKFLNRILNAYAESHYESWGCVWNRDIEQLLEDSELTIDSCKRFNFGTTYVIEAHEGHHHHHH | not soluble |
| MSLNVDVLLKNVWLYQTVTQTFVQRNVAIKNDKFYYIYEEENVNLQPQKTINAENQWMIPGLIDAHMHIESSMTTPTIFSKAVVRYGVTTVIADAHEMANVFGLEGLKAFMAAETELDIFHAIPSSVPSTTPELETTGGIIGLAEVAELLKEPKVICLGEAMNFKGISYEPDSLIRQIIDLCQKQRPTMPLEGHCPKIEDQELADFLYSGITSDHTHQFPKTLKEKIEAGVFIQFQNKSITPENIQVIVDNDFYNYASIITDDVMADDLLKGHLNENVKKAVHAGLPIEKAIYMATYTPAKRMGLHDRGEIAPGKKADFLLLNDLESFDINTVYKSGKVVFEKGEPFHYPEKIEEFPATYQQTIQCKKLTEEDLLLKVATTKETVRCNVIQKQEIGTFTERITKEIPVENGLLQWQKANCALLIVMERYGKNGNISFSLMDQPLSEKGAIATTWAHDHHNLMVMGNTIEDILLAQNELLAMQGGYLVASDQQVMATCPLPIGGILSQAPIEQLGASLQKVRQAMQALGYQNMNEIMSFSTLSLPVSPAIKVTDFGMMDTKSQRFYPLVFPEDGVLLHENTHEGHHHHHH | soluble |
| MAARLAASRIVHAGRGISQPTPFGKRMDRLSNRVWGEVVMPTDTKSLKVVRVMSAEPYETKEQLSPKYYPNLPMFHYLTKMLRFHGLFFDDHVVFRDVQDNLKIIRGKVVRPPIGQGKRAQLRGKK | not soluble |
| MLAMKLGIVGLGGWVTGAHIPALTDLGIKVDYCADIDEKRVKDLSQKTGCKGYLDYKEMLRNENPDLVLVAVPHSLHAIIALDAINNDANVYVEKPMATSFQEALTLVEASRKRNKILVVGHENRFNPAMLIAKKLIRGGEVGKIYHMRGFYIRQRGIPTSPTFIKKDLAKGGAVFDIGTHIIDLLLFLSDFPTPKSVTGKTYNAFSEDKTKFSAYPSPNLPNFKVEVEDFGSAFLKLGDEISAYVEVSWASYIKENKMEVVILGDNGGIHIDNGVLNFMRNIEDELFISSPLTQQKGSVYREVWRTVMESISKGFPEYPLCSAEQGAIGVAILESIYKSALEGREVKIDIPQWFLKQFQPRALEHHHHHH | not soluble |
| MSLVGNMNREALFKTLTTGYLHFWSLSRKKLWLKGETSGNFQIIEEFKVDCDADAVLFKVTSLGPICHTGNYTCFYRSYDELVNSKSEGHHHHHH | not soluble |
| MGSDKIHHHHHHMIFELPDTTTQQISKTLTRLRESGTQVTTGRVLTLIVVTDSESDVAAVTESTNEASREHPSRVIILVVGDKTAENKVDAEVRIGGDAGASEMIIMHLNGPVADKLQYVVTPLLLPDTPIVAWWPGESPKNPSQDPIGRIAQRRITDALYDRDDALEDRVENYHPGDTDMTWARLTQWRGLVASSLDHPPHSEITSVRLTGASGSTSVDLAAGWLARRLKVPVIREVTDAPTVPTDEFGTPLLAIQRLEIVRTTGSIIITIYDAHTLQVEMPESGNAPSLVAIGRRSESDCLSEELRHMDPDLGYQHALSGLSSVKLETV | not soluble |
| MKRGKGEKKATKSRDGSGQVVPLTEPVVTATGMVGTRSWIGGLFTRSNRRQDKAVDYTLSPLQEERLQRLQDRMVVPFDETRPDHQESLKALWNVAFPNVHLTGLVTEQWKEMGWQGPNPSTDFRGCGFIALENLLFSARTYPVNYSLLLKQRGDRAKWEYPFAVAGINISFMLIQMLDLQNNQDERAFDVLYCIAFAMMDAQWLAMHASYMEFNEVLQATRNQLERELSLDDIHRIQDLPAYNLLFQ | soluble |
| MAELSDQEMLRYNRQIILRGFDFEGQEALKDARVLVVGLGGLGCAATQYLAGAGVGQLTLLDFDTVSVSNLQRQTLHSDATVGQPKVESARDALARINPHITITPVNARLDDDAMTSLIAGHSLVLDCTDNVSVRNQLNAGCYTAKVPLISGAAIRMEGQVTVFTYRENEPCYRCLSRLFGENALTCVEAGVMAPLIGVIGSLQAMEAIKLLAHYGQPASGKIVMYDAMTCQFREMKLMRNPGCEVCGQ | not soluble |
| MKLKHKRDDKMRFDIKKVLELAEKDFETAWRETRALIKDKHIDNKYPRLKPVYGKPHPVMETIERLRQAYLRMGFEEMINPVIVDEMEIYKQFGPEAMAVLDRCFYLAGLPRPDVGLGNEKVEIIKNLGIDIDEEKKERLREVLHLYKKGAIDGDDLVFEIAKALNVSNEMGLKVLETAFPEFKDLKPESTTLTLRSHMTSGWFITLSSLIKKRKLPLKLFSIDRCFRREQREDRSHLMSYHSASCVVVGEDVSVDDGKVVAEGLLAQFGFTKFKFKPDEKKSKYYTPETQTEVYAYHPKLGEWIEVATFGVYSPIALAKYNIDVPVMNLGLGVERLAMIIYGYEDVRAMVYPQFYEYRLSDRDIAGMIRVDKVPILDEFYNFANELIDICIANKDKESPCSVEVKREFNFNGERRVIKVEIFENEPNKKLLGPSVLNEVYVYDGNIYGIPPTFEGVKEQYIPILKKAKEEGVSTNIRYIDGIIYKLVAKIEEALVSNVDEFKFRVPIVRSLSDINLKIDELALKQIMGENKVIDVRGPVFLNAKVEIK | soluble |
| MAHHHHHHMRNVLFNGPMIPEIDAGYNVQVNGVSVNFLKDPFCFRNVVIENAYYKNKLLYKNFNDDNVNKNITNHIKRENIVELDKEFNECIKDSLNNNHVHIKKNEPDYKLNDIKSPIYKERTKYTPKIIEVIKTNYNVPHDERVKIHKENLMYMNNIEYKKANEIVEKVILTIKNETIQKPVELANDEPNNILKPNNIFKKMLL | not soluble |
| GHMPFEWVKQYDYEDIIYETYNGIAKITINRPEVHNAFRPKTVNEMIDAFTKARDDSNIGVIILTGAGGKAFCSGGDQKVRGHGGYVGEDEIPRLNVLDLQRLIRVIPKPVIAMVAGYAIGGGHVLHVVCDLTIAADNAIFGQTGPKVGSFDGGYGAGYLARIVGHKKAREIWYLCRQYTAQEALEMGLVNKVVPLEQLEEETVKWAQEILEKSPTAIRFLKAAFNADSDGLAGIQQLAGDATLLFYTTEEAKEGMRAFKEKRKPDFSQFPRFP | soluble |
| VDGDQCESNPCLNGGSCKDDINSYECWCPFGFEGKNCEL | soluble |
| MVMNAILKKTHFSTAEYLADLAVQALIDEVNLTPKPALVDRRGGGAHDDLNLELMEKSAYSLFPMFKAMAEAAEIHGEVNQALREDIGQLGRQGEQRMLQVTHGINTHRGAIWSIGLVLTATALTLYKQEPCLITEICKTAAEIALLEDRFIPKQQFSHGQMVRQKFGINGAKQQAQQGFPIILEFGLVQLQCSRALNTTETEARLNALLAMMAELSDTCVVHRAGLDGLNMMQSGAREVLQLGGCSTNEGQQRLEQLEQNLLRIRASAGGAADLLATLLFLDQAEQHNSSAPQGRRNQWKY | not soluble |
